Laboratory results published in US7943319B2, “Utility of RET mutant in diagnosis and treatment of melanoma” (John Wayne Cancer Institute, priority 2007, dated 2011).
“Also recorded” adds a separate entry of the source.

Columns and labels:
ME7 cells (RETmt/BRAFwt) = experiment: Blocking assay of GDNF-induced proliferation; type: cell-based, human; details: pre-treated 60 min with 10 μM PD98059 or 100 nM wortmannin, then 25 ng/ml GDNF for 72 hrs
Method: (§1) Cell proliferation 48 and 72 hrs after GDNF treatment (5, 25 or 50 ng/ml, dissolved in water) in serum-free medium was analyzed by 3-(4,5-dimethylthiazol-2-yl)-2,5-diphenyltetrazolium bromide (MTT) and direct cell counting with a light microscope, respectively. MTT (0.4 mg/ml, Sigma-Aldrich, St. Louis, Mo.) was added into culture wells after washing with PBS. The converted dye was dissolved with DMSO 2 hrs after incubation at 37° C. and the absorbance was measured at a wavelength of 550 nm with a microplate reader (Bio-Rad). For cell counting, cells were harvested after washing with PBS and the number of cells was counted using a hemocytometer under a microscope. In blocking assays, cells were pre-treated with 10 μM of a MEK1 inhibitor, PD98059 (Cell Signaling Technology), or 100 nM of a PI3K inhibitor, wortmannin (Cell Signaling Technology), for 60 min before treatment of GDNF as indicated in the instructions from the company, and followed by 25 ng/ml of GDNF treatment for 72 hrs. To avoid the effect of the delivery agent on cells, PD98059 and wortmannin were dissolved in PBS, and the same amount of PBS was added to control (GDNF(−)) and GDNF-treated cells.

RETmt thyroid cancers = details: cited from earlier work
RET = RET (Homo sapiens, UniProt P07949); details: cited from earlier work
Chain of RET (P07949 29-1114): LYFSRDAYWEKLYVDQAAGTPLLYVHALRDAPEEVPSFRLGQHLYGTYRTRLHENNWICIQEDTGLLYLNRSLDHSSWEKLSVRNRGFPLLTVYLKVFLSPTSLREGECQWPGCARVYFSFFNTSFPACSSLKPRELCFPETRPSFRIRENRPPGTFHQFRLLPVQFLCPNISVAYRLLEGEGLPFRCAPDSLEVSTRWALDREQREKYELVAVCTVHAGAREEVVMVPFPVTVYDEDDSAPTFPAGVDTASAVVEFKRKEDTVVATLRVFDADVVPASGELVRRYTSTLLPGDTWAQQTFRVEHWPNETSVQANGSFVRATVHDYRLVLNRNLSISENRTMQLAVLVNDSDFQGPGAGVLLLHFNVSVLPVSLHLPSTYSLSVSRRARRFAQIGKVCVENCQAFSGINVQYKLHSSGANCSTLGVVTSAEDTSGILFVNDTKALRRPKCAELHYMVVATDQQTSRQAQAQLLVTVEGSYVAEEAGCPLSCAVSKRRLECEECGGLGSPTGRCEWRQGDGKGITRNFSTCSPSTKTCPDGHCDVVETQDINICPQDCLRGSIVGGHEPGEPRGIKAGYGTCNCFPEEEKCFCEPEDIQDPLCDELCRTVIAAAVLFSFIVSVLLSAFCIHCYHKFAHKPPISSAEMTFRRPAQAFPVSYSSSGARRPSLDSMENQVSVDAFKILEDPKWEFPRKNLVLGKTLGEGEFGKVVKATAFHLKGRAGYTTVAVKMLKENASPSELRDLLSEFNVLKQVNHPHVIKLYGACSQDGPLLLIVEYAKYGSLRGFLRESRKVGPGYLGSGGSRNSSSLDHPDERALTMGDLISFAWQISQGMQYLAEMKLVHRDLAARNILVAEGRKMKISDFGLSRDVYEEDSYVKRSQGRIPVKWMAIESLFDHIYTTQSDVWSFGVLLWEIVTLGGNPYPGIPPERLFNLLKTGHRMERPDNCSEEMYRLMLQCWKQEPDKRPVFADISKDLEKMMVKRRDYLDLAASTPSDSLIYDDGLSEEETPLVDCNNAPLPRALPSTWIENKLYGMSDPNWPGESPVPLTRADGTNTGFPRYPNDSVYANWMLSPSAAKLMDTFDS

[1] = target: RET G691S mutant (RETmt), endogenous on melanoma cells (human) (UniProt P07949); experiment: cell-based or functional assay
Chain of RET G691S mutant (RETmt), endogenous on melanoma cells (human) (P07949 29-1114 G691S): as the sequence (P07949 29-1114) above, with G663S counted along it

[2] = test system: melanoma cells (RETmt and RETwt); experiment: QCM Collagen-based Invasion Assay with GDNF; type: cell-based, human; details: RETmt cells compared with RETwt cells; 25 ng/ml GDNF, 60 hrs
Method: Invasion ability of the melanoma cells was analyzed using QCM™ Collagen-based Invasion Assay MILLIPORE, Billerica, Mass.), as described in previous reports (27, 29). Cells were seeded in the upper chamber with RPMI 1640 culture medium (Invitrogen) with 2% FBS containing GDNF. The lower chamber contained RPMI 1640 culture medium with 5% FBS and GDNF with same concentration as the upper chamber (25 ng/ml). Cells invading the collagen-coated membrane were fixed and stained 60 hrs after incubation at 37° C. using reagents provided by MILLIPORE, according to the manufacturer's instructions. Stained cells were dissolved with a provided reagent and measured at a 550 nm wavelength with a microplate reader (Bio-Rad). In the blocking assay, cells were pre-treated with 1 μg/ml of a goat anti-human polyclonal RET-specific Ab, which binds to the extracellular domain of RET (R&D Systems), or 1 μg/ml control goat IgG (Santa Cruz Biotechnology) as a control 60 min before treatment with GDNF and followed by treatment with 25 ng/ml GDNF for 60 hrs.

[3] = test system: melanoma cells (ME1, ME7, ME3); experiment: Actin polymers staining by Alexa Fluor 568 phalloidin; type: cell-based, human; details: 10 ng/ml GDNF, 48 hrs
Method: Melanoma cells were seeded in BD BioCoat™ CultureSlides (BD Biosciences, San Jose, Calif.). Cells were washed twice with PBS and fixed with 3.7% formaldehyde solution in PBS for 10 min at room temperature after a 48 hr incubation with GDNF (10 ng/ml) at 37° C. Fixed cells were stained with 1 U/200 μl of PBS Alexa Fluor® 568 phalloidin (Invitrogen) for 20 min at room temperature. After washing twice with PBS, actin polymers were observed using fluorescence microscopy with 400× magnification.

ERK1/2 = experiment: Western blotting of phosphorylated ERK1/2 after GDNF; type: cell-based, human; details: 25 ng/ml GDNF
Method: (§2) Cells were washed twice with ice-cold phosphate-buffered saline (PBS) and dissolved in solubilizing buffer (pH 7.5, 20 mM Tris-HCL, 12.5 mM β-glycerophosphate, 2 mM EGTA, 10 mM NaF, 1 mM benzamide, 1% NP-40, 1 mM Na3VO4, 1× protease inhibitor mix) after treatment with 25 μg human recombinant GDNF (Chemicon International, Temecula, Calif.). Each aliquot of protein (10 μg) was subjected to Western blotting analysis. After electrophoresis on 12.5% polyacrylamide gels, the protein was transblotted to Hybond™-P (Amersham Life Sciences, Inc., Arlington Heights, Ill.) in transfer buffer (192 mM glycine, 25 mM Tris, 2.5 mM SDS, and 10% methanol). The blots were blocked with 5% non-fat dry milk, and then incubated with anti-ERK 1/2 rabbit polyclonal Ab, or anti-phosphorylated ERK 1/2 rabbit polyclonal Ab (1:1000, Phosphoplus® p44/42 MAP Kinase (Thr202/Tyr204) Antibody kit, Cell Signaling Technology, Danvers, Mass.), and then incubated with an horse radish peroxidase (HRP)-conjugated anti-rabbit IgG Ab (1:2000, Cell Signaling Technology). As for Western blotting of Akt, anti-Akt rabbit polyclonal Ab, or anti-phosphorylated Akt rabbit polyclonal Ab (1:500, Phosphoplus® Akt (Ser473) Antibody Kit, Cell Signaling Technology) and a secondary Ab, HRP-conjugated anti-rabbit IgG Ab (1:1000), were used. Subsequently, the blots were developed with ECL Plus Western blotting Detection system (GE Healthcare Life Sciences, Piscataway, N.J.) according to the manufacturer instructions.

[4] = test system: melanoma cells (RETmt and RETwt); experiment: Migration assay (Transwell chamber) with GDNF; type: cell-based, human; details: RETmt cells compared with RETwt cells; 5 or 25 ng/ml GDNF, 48 hrs
Method: Migration ability of the melanoma cells was determined with a modified technique using a Transwell® chamber with a microporous membrane (membrane diameter 6.5 mm, pore size 8 μm, CORNING, Corning, N.Y.) (29). Melanoma cells were seeded in the upper chamber with RPMI 1640 culture medium (Invitrogen) with 2% fetal bovine serum (FBS). The lower chamber contained RPMI 1640 culture medium with 2% FBS and 5 or 25 ng/ml of GDNF. The cells that migrated through the membrane and adhered to the bottom of lower chamber were fixed with 80% ethanol and stained with hematoxylin 48 hrs after incubation at 37° C. The number of stained cells was counted in a total of 5 fields under a microscope with 200× magnification. In blocking assays, cells were pre-treated with wortmannin (100 nM) for 60 min before treatment of GDNF as indicated in the instructions from the company and followed by treatment with 25 ng/ml GDNF for 48 hrs. To avoid the effect of the delivery agent on cells, wortmannin was dissolved in PBS, and the same amount of PBS was added to control (GDNF(−)) and GDNF-treated cells.

Akt = experiment: Western blotting of phosphorylated Akt after GDNF; type: cell-based, human; details: 25 ng/ml GDNF
Method: as §2

[5] = test system: melanoma cells (RETmt and RETwt); experiment: Cell proliferation by GDNF (MTT assay); type: cell-based, human; details: 48-hr exposure to GDNF, serum-free medium
Method: as §1

For `COc1cccc(-c2cc(=O)c3ccccc3o2)c1N` [PD98059], the “suppression of GDNF-induced proliferation” value (ME7 cells (RETmt/BRAFwt)) was “significantly blocked; also recorded: completely suppressed”.

For `CNC(=O)c1cc(Oc2ccc(NC(=O)Nc3ccc(Cl)c(C(F)(F)F)c3)cc2)ccn1` [Sorafenib], the “growth of RETmt thyroid cancers” value (RETmt thyroid cancers) is given as “suppress growth”, the RET signaling (RET) is given as “can block” and the “kinase activity of RET” value (RET) is given as “directly suppresses”. For the same molecule, the “lysosomal degradation of RET protein” value (RET) was “promotes”.

In the case of “human recombinant GDNF (glial cell line-derived neurotrophic factor) (from UniProt P39905 78-211) (ligand)”, the suppression by RET siRNA of GDNF-induced cell proliferation in ME1 (MTT assay) [1] is reported as > 80%.

B1: GDNF: human recombinant GDNF (Chemicon International), major ligand of RET (protein)
chain: SPDKQMAVLPRRERNRQAAAANPENSRGKGRRGQRGKNRGCVLTAIHLNVTDLGLGYETKEELIFRYCSGSCDAAETTYDKILKNLSRNRRLVSDKVGQACCRPIAFDDDLSFLDDNLVYHILRKHSAKRCGCI
In the case of B1, the “invasion after GDNF stimulation” value [2] is reported as “more vigorous”, the “actin polymerization (filopodia)” value ([3]; RETmt cell lines ME1, ME7) is reported as “induced intensely; also recorded: induced filopodia” and the “actin polymerization (filopodia)” value ([3]; RETwt cell line ME3) is reported as “no actin polymerization induced”. For the same molecule, the “phosphorylation of ERK1/2” value (ERK1/2; ME1 (RETmt/BRAFmt), ME7 (RETmt/BRAFwt)) was “more intense phosphorylation; also recorded: strongly phosphorylated”, the “duration of phosphorylation of ERK1/2” value (ERK1/2; ME1, ME7) was 60 min and the “time to strong phosphorylation of ERK1/2 after treatment” value (ERK1/2; ME1, ME7) was ≤ 15 min. For the same molecule, the “phosphorylation of ERK1/2” value (ERK1/2; ME3 (RETwt/BRAFwt)) was “weak phosphorylation”, the “migration after GDNF stimulation” value [4] was “more vigorous” and the “phosphorylation of Akt” value (Akt; ME1 (RETmt/BRAFmt), ME5 (RETmt/BRAFwt)) was “strongly phosphorylated”. The “duration of phosphorylation of Akt” value (Akt; ME1, ME5) was 60 min, the “time to strong phosphorylation of Akt after treatment” value (Akt; ME1, ME5) was ≤ 15 min and the “phosphorylation of Akt” value (Akt; ME3 (RETwt/BRAFwt)) was “weak phosphorylation”. For the same molecule, the “cell proliferation on GDNF exposure” value ([5]; RETmt melanoma cells) was “enhanced proliferation” and the “cell proliferation on GDNF exposure” value ([5]; RETwt melanoma cells) was “but not RETwt melanoma cells”.
